Data on 66 sequences can be found in the supplement of paper PMC10126150.

± gives the standard deviation of the averaged measurements.
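Also: ATP exposure 15 min at 22 °C before imaging.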

For the data set, the system named is ATP. Nature of the data set: switch fluorescence ratio, 500 uM ATP over buffer (Cy3 cluster intensity, sum of 5 cycles each) (fold (ratio)); higher = stronger signal-on switching upon ATP binding; sequences stand for … in TCGTCGGCAGCGTCAGATGTGTATAAGAGACAGTTTTTTTTTTTTTTTTTTTTTTTTT…TC. As to conditions: aptamer strand: ATP DNA aptamer (quencher-CACCTGGGGGAGTATTGCGGAGGAAGG + anchor), 100 nM annealed; ATP concentration: 500 uM. The essentials:
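Clusters with intensities outside 100-1000 RFU were excluded. The remaining Cy3-labelled switching-strand clusters on a modified Illumina MiSeq flow-cell had been annealed to 100 nM quencher-labelled ATP aptamer and imaged in selection buffer, then after 15 min with 500 uM ATP at 22 °C, for five cycles separated by NaOH stripping and re-annealing. The fluorescence ratio, averaged per switch-domain sequence, is each cluster's summed target-cycle Cy3 intensity over its summed buffer-cycle Cy3 intensity.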
Take GGACTCTCGG: the switch fluorescence ratio turned out to be 0.967 ± 0.024. The same measure for GGTTATGCAG: 0.977 ± 0.1; for GTCATATGTC: 1.07 ± 0.051; for CAGGTTTGTG: 1.01 ± 0.018. The same measure for CAAAAAAAAA: 1 ± 0.017. The same measure for CCAATAGGCA: 1.046 ± 0.0078. Turning to GGTTTGGTGG, the switch fluorescence ratio amounted to 0.992 ± 0.028. On to GGTTTATCAG, for which the switch fluorescence ratio was determined as 0.983 ± 0.021.

On to AATTTAGGTT, for which the switch fluorescence ratio was 0.993 ± 0.03. With GGGGAAAAAT, the switch fluorescence ratio came to 1.01 ± 0.032.

On to GTGATCGTCG, for which the switch fluorescence ratio came to 1.01 ± 0.017. The same measure for CCGGGCAGAG: 1.96 ± 0.071. The same measure for CTTTGAATGT: 0.983 ± 0.03. For CAGCTAAAGG the value was 1.02 ± 0.03; for TTGGGGGAGT, 1.03 ± 0.022; for GTGATTGGAG, 0.966 ± 0.025. On to GCCAGTTTGG, for which the switch fluorescence ratio amounted to 0.9916 ± 0.0052.

Consider TTTTTTCTCG, for which the switch fluorescence ratio was 1.04 ± 0.078. For TAAACGCCTC the value was 1.08 ± 0.058; for TAGTATGGGG, 0.976 ± 0.045.

Take GAAGGTGAGT: the switch fluorescence ratio is 1.03 ± 0.014. As for TGAATGACGT, the switch fluorescence ratio stood at 0.972 ± 0.04. For CAGTGAGAAC the value was 1.01 ± 0.025; for GGGCACGTTT, 0.995 ± 0.011; for AAGACTGTTT, 0.954 ± 0.026.

For the sequence TGGATAAGCG, the switch fluorescence ratio came to 1 ± 0.032. For GTGGGGTCGG the value was 0.979 ± 0.0057; for TGTTTGTTGT, 1.03 ± 0.063; for GATAATAAGT, 1.01 ± 0.016. For GGGTGGAGTT, the switch fluorescence ratio worked out at 0.9672 ± 0.0046.

Regarding TATGTAATGT, the switch fluorescence ratio was found to be 0.993 ± 0.031. Take CAAATCAGTG: the switch fluorescence ratio was 1.002 ± 0.01. For TTGGATATTC the value was 0.997 ± 0.033; for TTTGAAATTT, 1.006 ± 0.0096; for CTAGGCTGTA, 1 ± 0.021.

As to ATTTGAGCTG, the switch fluorescence ratio turned out to be 0.947 ± 0.13.

For the sequence ATCCGGGGGA, the switch fluorescence ratio is 1.04 ± 0.11. For ACAGGGTGCA the value was 1.03 ± 0.052.

Consider ATGTAATGAT, for which the switch fluorescence ratio amounted to 1.02 ± 0.018. The same measure for AGCGTCAGTA: 0.999 ± 0.014; for GGGATGTGCT: 0.957 ± 0.012. As for TGGATTTAAT, the switch fluorescence ratio was 1.01 ± 0.049. Take GGGGCGGGAA: the switch fluorescence ratio stood at 0.982 ± 0.05. With TTTTGGTTTA, the switch fluorescence ratio worked out at 1 ± 0.011.

As to AAATGCTATG, the switch fluorescence ratio worked out at 1.01 ± 0.031. With TTACCCAGAG, the switch fluorescence ratio turned out to be 1.1 ± 0.064. For AGGAGGCAGG the value was 1.03 ± 0.011. Consider AATGCGTGGC, for which the switch fluorescence ratio came to 1.0436 ± 0.00057. For GGGGAATGGG the value was 1.01 ± 0.028; for GATGCTGGGT, 1.01 ± 0.014. The same measure for TTGATCGGGG: 1.01 ± 0.028; for GGGTTAAGTG: 1.02 ± 0.018. For the sequence TCGCCGTATG, the switch fluorescence ratio worked out at 0.999 ± 0.018. The same measure for TATCTGAACG: 1.01 ± 0.037; for GGTGAAAGGA: 0.979 ± 0.058; for AAACTCGGAC: 1.143 ± 0.0053. The same measure for CAGCCTATGG: 0.991 ± 0.05; for GTTGGGTGGG: 0.984 ± 0.013. For TGCGCGAAAT, the switch fluorescence ratio was 0.995 ± 0.0021. For GCGATTTTTA the value was 1.09 ± 0.089; for TTTTGCGAAA, 1.55 ± 0.9; for TAAGTGGTTT, 1 ± 0.019. For TTTAGGTACT the value was 1.25 ± 0.34; for TTGTAGTCTC, 1.03 ± 0.11. Regarding CTTTTTTATT, the switch fluorescence ratio is 1.01 ± 0.0085.

On to GATATTAAGC, for which the switch fluorescence ratio was found to be 1.01 ± 0.026.
